Among the data in PMC9467883, “Autoinhibition of the GEF activity of cytoskeletal regulatory protein Trio is disrupted in neurodevelopmental disorder-related genetic variants” (The Journal of Biological Chemistry, 2022) are Kd values, retold here.

The target in assay [1] is Human Rac1 (human, UniProt P63000 1-192). As to the kind of experiment: BLI; ForteBio BLItz; His-GEF1 (0.5 uM) or SR6-GEF1 (2 uM) loaded on Ni-NTA biosensors; nucleotide-free Rac1 at 4-5 concentrations in assay buffer (20 mM Hepes pH 7.25, 150 mM KCl, 5% glycerol, 0.01% TritonX-100, 1 mM DTT); Kd = koff/kon from the linear fit of kobs against Rac1 concentration. The conditions noted are these: both partners purified.

Assay [2] has the same target. The description is as above. The following applies: both partners purified. This is another data set of the same source.

B1: Human Trio SR6-GEF1 (domain or fragment)
chain: not shown
notes: Trio, human, spectrin repeats 6-9 appended to the GEF1 domain, 99 kDa; amino acids 788 to 1599 as stated for SR6-GEF1 in the modelling paragraph; Cloned into the pFastBac1 HTa vector; The limits 788-1599 are printed for the modelled SR6-GEF1, not in the cloning paragraph; also called His-SR6-GEF1; WT SR6-GEF1; source: Hi5 cells infected with baculovirus, purified (Ni-NTA, S200 Increase)
In the assay with Human Rac1 [1], B1 registered an equilibrium dissociation constant (Kd) of 316 nM.

B2: Human Trio GEF1 (domain or fragment)
chain: not shown
modifications: His tag omitted (used for Ni-NTA immobilization). The GEF1 limits are not printed: the C-terminus 1599 comes from the printed SR6-GEF1 construct (788-1599), and the N-terminus about 1284 follows the …
Turning to B2, the Kd in the assay with Human Rac1 [2] was determined as 151 nM.
